# Results reported in patent US7265263B1, “Potato transcription factors, methods of use thereof, and a method for enhancing tuber development” (Iowa State University Research Foundation, Inc., priority 2002, dated 2007).
# B1: pAD5-2 (StBEL-05 deletion construct in pGAD) (other, not shown: small tags and cut ends)
# chain: EEVEQRYRQYHHQMQIIVLSFEQVAGIGSAKSYTQLALHAISKQFRCLKDAIAEQVKATSKSLGEEEGLGGKIEGSRLKFVDHHLRQQRALQQIGMMQPNAWRPQRGLPERAVSVLRAWLFEHFLHPYPKDSDKIMLAKQTGLTRSQVSNWFINARVRLWKPMVEEMYLEEVKNQEQNSTNTSGDNKNKETNISAPNEEKHPIITSSLLQDGITTTQAEISTSTISTSPTAGASLHHAHNFSFLGSFNMDNTTTTVDHIENNAKKQRNDMHKFSPSSILSSVDMEAKARESSNKGFTNPLMAAYAMGDFGRFDPHDQQMTANFHGNNGVSLTLGLPPSENLAMPVSQQNYLSNDLGSRSEMGSHYNRMGYENIDFQSGNKRFPTQLLPDFVTGNLGT
# notes: Residues converted from pAD-05 numbering
# B2: pBHD9 construct cloned into the pGAD vector (other, not shown: large carriers)
# chain: MDDEMYGFHSTRDDYADKALMSPENLMMQTEYNNFHNYTNSSILTSNPMMFGSDDIQLSSEQTNSFSTMTLQNNDNIYQIRSGNCGGGSGSGGSSKDHNDNNNNNEDYDEDGSN
# notes: also called pBDH9 construct in pGAD
# B3: pBHD-9: POTH1 deletion construct, first amino-terminal 114 aa, no KNOX domain sequence (protein)
# chain: MDDEMYGFHSTRDDYADKALMSPENLMMQTEYNNFHNYTNSSILTSNPMMFGSDDIQLSSEQTNSFSTMTLQNNDNIYQIRSGNCGGGSGSGGSSKDHNDNNNNNEDYDEDGSN
# Legend:
# [1] = target: T1, POTH1 in pBridge (full-length POTH1 fused with the GAL4 DNA-binding domain) (Solanum tuberosum); assay: yeast two-hybrid deletion analysis
# T1 construct: Bait of the yeast two-hybrid screen and partner of the StBEL-05 deletion constructs; also called pBHD; pBridge:POTH1
# Excerpt: The Matchmaker two-hybrid system (Clontech, Calif.) was used for the yeast two-hybrid screen. Yeast transformation and plasmid rescue into DH5-α *E. coli* cells were according to the manufacturer's instructions. Full-length POTH1 was cloned into the pBridge (Clontech, Calif.) vector and used as bait to screen the potato (*S. tuberosum* 'Desireé') stolon cDNA library in pAD-GAL4-2.1 (Stratagene, Calif.). Positive interactions were confirmed by cotransforming yeast strain AH109 with each purified pAD plasmid and pBridge: POTH1 and plating on -leucine/-tryptophan (transformation control) and -leucine/-tryptophan/-histidine/-adenine (selection) nutrient medium. Induction of the AH109 reporter gene, lacZ, was measured with a yeast β-galactosidase assay kit (Pierce Chemicals). β-galactosidase activity (FIG. 9B) was determined from a known density of yeast cells and calculated as 1000 ×OD420/time of color reaction (minutes)×volume of yeast culture (ml)×$OD600$.
# The StBEL-05 deletion constructs were amplified by PCR, then cloned into the vector, pGAD, in-frame with the GAL4 activation domain. POTH1 deletion constructs were amplified by PCR, and cloned into pBridge (Clontech) in-frame with the GAL4 binding domain. Sequencing of selected cDNAs and constructs was performed at the Iowa State University DNA Facility. […]
# [2] = target: T2, StBEL-05 in pBridge (fusion with the GAL4 DNA-binding domain) (Solanum tuberosum); assay: yeast two-hybrid, swapped vectors
# T2 construct: Swapped two-hybrid orientation; also called prey cDNA cloned into pBridge
# StBEL-05 [3] = assay: Yeast two-hybrid interaction of POTH1 deletion constructs with StBEL-05; assay type: binding, Solanum tuberosum; conditions: yeast AH109
# Experimental: The StBEL-05 deletion constructs were amplified by PCR, then cloned into the vector, pGAD, in-frame with the GAL4 activation domain. POTH1 deletion constructs were amplified by PCR, and cloned into pBridge (Clontech) in-frame with the GAL4 binding domain. Sequencing of selected cDNAs and constructs was performed at the Iowa State University DNA Facility. For deletion analysis, modified constructs of POTH1 were cloned into the pBridge vector for fusion with the DNA-binding domain of GAL4 (FIG. 10A). For StBEL-05, constructs were cloned into the pGAD vector for fusion with the activating domain of GAL4 (FIG. 10B). Deletion constructs were made from both the amino and carboxy termini. These mutants were then tested for interaction in the yeast two-hybrid system by cotransforming into yeast strain AH109 with the corresponding full-length partner (StBEL-05 in pGAL4 or POTH1 in pBridge). All constructs were sequenced to verify that they were in-frame. Positive interactions were verified for lacZ induction by using a β-galactosidase assay (Pierce Chemical Company). For POTH1, seven deletion constructs were tested (FIG. 10A). For the BEL TFs, a fusion construct of StBEL-05 (653 aa of StBEL-05 sequence) and nine deletion constructs were tested (FIG. 10B).
# StBEL-05 [4] = assay: In vitro binding assay of POTH1 deletion constructs with StBEL-05; design: species or system Solanum tuberosum; conditions: in vitro binding protocol
# Experimental: In vitro binding experiments were performed as described by Ni et al., “PIF3, a Phytochrome-Interacting Factor Necessary for Normal Photoinduced Signal Transduction, is a Novel Basic Helix-Loop-Helix Protein,” Cell 95:657-667 (1998), which is hereby incorporated by reference in its entirety. The full-length sequence for POTH1 was cloned into a pET17b/GAD fusion cassette and transcribed under the control of the T7 promoter. […] Each 50 μl TnT reaction contained 2.0 μg of template plasmid DNA and 20 μmol (20 μCi) of labeled ^35S-methionine. The POTH1:GAD/BEL complex was immunoprecipitated with anti-GAD antibodies (Santa Cruz Biotechnology, Calif.). The proteins from the pellet (one-half the fraction) and for the prey (one-fourth of the reaction volume) were resolved on a 10% SDS-PAGE gel and visualized by autoradiography. […] Control experiments identified the first 114 aa of the N-terminus (pBHD9) as a transcriptional activator. […] Co-transformation of pBHD9 with an empty pGAD cassette produced transformants capable of growth on -histidine, -tryptophan, -adenine, and -leucine medium and induction of lacZ. None of the other constructs containing this domain were capable of growing on selection media without StBEL-05.
molecule,measurement,setting,value
B1,binding result,[1],no binding
B2,binding result,[2],no binding
B3,interaction with StBEL-05,StBEL-05 [3],Interaction with StBEL-05 was observed
same,pull-down of StBEL-05,StBEL-05 [4],unable to pull-down StBEL-05
